Measurements published in the domain aggregation screens of Martell et al. (2025).

Assay: soluble fraction after stress (log2 fold change); higher = more stays soluble; pooled small domains, quantitative proteomics
Settings: stress: 75 degC
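Also: 20 min heating vs room temperature control held 20 min.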

| Sequence | soluble fraction (log2) |
| --- | --- |
| HMISVENLSNREFEIFQLIGNGFSTKEMAKKLNLSIYTVESHKKNIKEKLKLKNSSDLSKYAIQWVIMQN | -2.94 |
| HMITANNYFNEVERIGVETLPETLRKGHDLVVRSTNSGTNWSNYQNNESIRKVIDLYLQKLNEYVSTST | 0.294 |
| HMITGSIQPKNGKYYAVLNLYDHTGKRRPKWVSTGYTVKGNKKKAQEVLNELTRRYSAQLPPSK | -1.05 |
| HMITLPDFVGKDVETVKAWAKENGITLIVNKVEDSAKKDTVISQTPTTYDYSKIMKGSSFTVNVAKE | 0.206 |
| HMITNLEPFKDFVRGFSGLHLEGVGQEKLAAALDERIRKTGSANERDYLQLIMEDVAERLKLINILT | -0.627 |
| HMITPAARLRALKIRLSVDEVAQIVQRLVNGETVYQIGKPDTGGHAKATVGKINALRLAGQLHFL | -1.45 |
| HMITTLLVENLQDVGMRLDHYLVYNLIKYSRSHIQSFIRSGDIRVNGKKVKTGYSLELKDLIHIEMP | -3.66 |
| HMITVPKVINMSETQARQTLDALGLNVTLSATQVMNDKIPYGYVAAQSYSAGKEVPAGTTIELTMSIGL | -2.03 |
| HMIVDYPSFVGKTKQELEKWAKENNIIIRYRQLSVTASDKVKAQLPATTTYKRIMKGSSIEVELEL | -2.44 |
| HMIVIMKAKAEEEDVNRVIDTIQSLGLRTQLNLGAERMVVAVIGDISKIGEDNFFRIRAMKGVENTVFVSK | -2.12 |
| HMIVMPELRGKDLKEAERLLSSHNLRYELVDSVYDKSLAPGVVVEMVPQSGNTVKPGRIIFLSINA | -0.982 |
| HMIVNTTRAPYLLGETEQDAMRLARQAGLVPEIVRQSSAEPAGTVILQSHDFDYRMRRGSVILITVSTGPL | -2.84 |
| HMIVPPAIPFRALGIFGPRDRPIVTFEDGPRLINAREGDVLDGRFILRRVGRESVDFAFVGLPPEITRRIP | -0.571 |
| HMIVSEYIIIGGDKKEYGPVSMGEVGEWVQGGRANGDSKIKKVGTEEWGRLRDFPEFSAYLS | 0.121 |
| HMIVVMARETSTDDLEAIRERIESRGMVAQINLGVERTVIGVMGSIPPDFKDEMELMNGVVEVVMISK | -2.56 |
| HMIVVMKTSASERDLQEVIARIEQFGFATRSIVGSERATVSVLGAPLPDSLQEALERMPGVEEVVRITK | -1.48 |
| HMIYAEDFVGRQGTANTILRPSGRIEIEGEVYDAYTRGEYVEAGERVVVISQEGSTLKVRVV | -0.611 |
| HMIYQEGMQVKYQGKEYVISEIQDYKTYKTIKLDDNEGYLNGFITGSEILSFRNESELDLEI | -0.208 |
| HMIYSKSDLELFGIKKIDVMEENILMLILSEYELDQTPKNILIDEAVRLSKKFGADNAYKFVNATLDTLL | -1.15 |
| HMKAETILAIPENQPERLFPNNEDEARKIYRDLAREWHTDRNKSPKAQDVFSHLSKLYDIVIDRIKNKTWT | 0.194 |
| HMKAGRNTLARQMAILEVLQKDGRALVDDLAARFETTPQTIRKDLSALAEVNQISRFHGGAALVG | -0.159 |
| HMKAKTYTVQYIDEGKIIKEEELEEGSIINAPEVTKEGHTFIGWYEGEEKYDVYEPITRNLILESKNEIN | -0.176 |
| HMKALEGMRTVFTLADLATEPVTVEITVLEAFKYTTTLEIVQRPVLREWMTNPSMLIRVYHDASTAE | 0.0452 |
| HMKAMIIVMKPGADMATISKVLKTIETNGFKPHLSKGEETTVIGVIGDERKLNPDIFSTLEGVERIVPVA | 0.251 |
| HMKASTRELLDFVLSQRGVSTASVAKALGISVQNASTRLKKLSNEGLIIRSEASSLTGGIEFLYS | -0.822 |
| HMKDASEFLGAKGKTITPLRPTGAAVINGEKVDVLAEGEFIPKNAEIVVIKVEGSKIIVRNANN | -0.061 |

| Sequence | soluble fraction (log2) |
| --- | --- |
| HMKDDLTWSEGLMPNVVGMGLRDAMFMLENSGLRVNYSGRGKVTRQSPQPGVRIKRGATVAIELRL | -1.89 |
| HMKDEHYLYIKARVDNGDYPHLSELKSAEEIELVMPKLLQDGIVEFNKETGEYTIGEDVKAEIERL | 0.12 |
| HMKDESYALGTRLLSHALGKTKLEDLAQEKIDEVVQQSGNKTLEQLLTNIGLGNALSIGIARQLT | 0.345 |
| HMKDGAKYFQLFGLLKNEINRGIYQSGQKIPGENELAEKYGMSRQTVRQALSLLEQESLIERRQGSGTYVR | -0.121 |
| HMKDGMRVYITYHDSEEEPEKPIGDGTTKGWHTNSTASVVWISQKVAESADLGIWGDPIRIKGEA | 0.0608 |
| HMKDIIVDPQGQYNHPGVPTRIPSSDITMKGVGYPVLGIADNGQKQMMQPGQDYKFPGAKYVDEYPQM | 0.185 |
| HMKDIIVLGAIQAGIKKFDKIQKMTQIEPEELNSILEQLENRGFIQVAEKSGLLGKKIEILVTEKGSNEVD | 0.223 |
| HMKDITAVISKKKGRDYYYIIVSYHLSNGKRVQKWIKTEFSVNGNNKRKLEQKRIEILQEWQNKLV | -1.04 |
| HMKDITMPNVYGLTLEMAEQTLKQSELSIFKAMKINSDTVEEGKVIYTDPKANSIVSGDQEITIYVSDGP | 0.411 |
| HMKDKSEKTKKLIFEAAFKIIREEGFSELSANKIAQVASVSKGVIFHHFSQMDDLYLFMLDTL | 0.23 |
| HMKDLTAIKGVGEFFAKKLSQAGYQSITNLTDVNAKRLQADTGIPLPIAARIIKEAQSLIAET | 0.157 |
| HMKDMWNRIRRARLSAGLSQAALAKETGVRRSAVTQWEKEGGTSPSVANLARIAVVTQVHFEWLATGRGPG | -2.76 |
| HMKDNIRSILEDIPNIGPGRRRALLKHFGSIEAIRRASLEDLIKVDGMNRNAALSIMEYFGM | -0.286 |
| HMKDPSLEHIDALAGKPFQAFPGQDHRAHITAHLNFMSTNMVRNNPSIMAAIQKNILEHISLMAQEQIQL | -1.42 |
| HMKEETYHYTVRYVTDGGDILASYEGKATKDSVFFPEVKTFDGYTAVRGEEPMFHLVSDHAVFQIVYQKNG | -1.17 |
| HMKEFEINSQWKPSLEVYDILSVKGGISRNFIEDSIPEFVLYWRGRGDKSNTWDSKFVQHVKRQWNFYSGL | -2.43 |
| HMKEGGREEMSEIVERYGDERALMANITSVQNLMNNMKWTLDQALDALGIKGKERTLITQQLQ | -0.0628 |
| HMKEIATKSELTYFIQRLLDLLEETNFFNPEERKKAMINHIEAIFRRNNLTLQELNMLHGIITSITR | -2.45 |
| HMKEIGGGPASKFIYYLIKTKHPIEQGDLIGITHLPRRTVQSAIEDLKNQGFIIERNSLDDSRRKVYYPVK | -0.943 |
| HMKEIKRLVELSPGRYFIEGATNIRVFGINGSLLLDTKGETVDLSDLAKGVYLLKTDGVTYKVL | -0.506 |
| HMKEIYIDRGKEALEKELRKRKIPFQEFLSKENTNLLFDTLKIPSHDLEELYLEIGNGKHAASTVVNTVY | 0.391 |
| HMKEKQLMTLDDDLYAFLLKHPGIIQKDIYNHFPYDIKGVIADTLYAWDKTGKIKRTKSGNSYIIYT | -0.228 |
| HMKELAADFSRRIINARTSKGWSQADLGQRMAETINVIKSAESGKPPTDAVVKKFETVLGVILM | -1.06 |
| HMKELLDRIFLHETMRRVSQDATITFSKKVYEVPQKFIGRQVTVQYDPEDLSRVYVKDLNFPEPVMVYPVQ | -1.59 |
| HMKELTPEQLQHNWNNLRQFIDVNFSGDRLGGLNKMYDYFEERMMFAPASGKQHYHNAFAGGYVEHVMHV | 0.209 |
| HMKEPGFAPPVRALAAAPITVLAQVAGTNPGEIRARLRAAGYPVASDQQSVQSLVGGDLKAQIGVLNRILA | -0.286 |

| Sequence | soluble fraction (log2) |
| --- | --- |
| HMKEQIKVPDLSNKTPEEAKKELNTLGLGARKGGEESSDTVEEGLITRQEPAAGEQVDKNTQILFYVSTGK | 0.901 |
| HMKEQLLLGFKVRSLRGIDLGFVKFIEGSAFQSFLKTDLTIIPNVPNYVKKIDNVKKIILVDWESD | -2.8 |
| HMKEQYTELDWDKVQVNDKVMIKDLNQQVTILSLPDKNNALYIQMGMIKTKVKKEKLAVYNPQLA | -2 |
| HMKERVSWDERLERFAKHITENESLPYPSSKEYAWFEENKALYDAGELEPVRAQSFAFLLKIMRRMNL | -1.7 |
| HMKETIIPELLQNELDKNSELNDKFNTFSPYKQREFIEYIITAKQEKTQISRLQKVILMILEGRGLNN | -1.89 |
| HMKEVELENMIKAKGFKDAAVLVDERSVTVIVESERLAAGDSASIKELVSRGTGVDPQNVVII | -0.31 |
| HMKEYPEVITTSRLNVRTGPGTGYQRLGTLDQNLRVLVLTRQQGWAQIRGMLNGETVIGWVNDYYLQAID | -2.54 |
| HMKFINISIDKSGNLFINKKSIKFQDLKYNVVNLVDESKNLVVLNADENISHGYVISVLDVLRSIDGLKLA | -2.13 |
| HMKFNEKQNEVRIAIMNFIIDNKRPFHMKQDGYDALEGITLSGRHEFQDILDVLHSRDGFSADEEGNINF | -1.09 |
| HMKFPIITAKQDSDGKFYWAQTTDKGKTYTFILDGDGKKFPIGGTMPDVKINENGYWSVNGSSTGVLANDL | 0.368 |
| HMKFSVEEQFKKSFPKNTYETFSETSLKGVYEVYNGKQVYYYLPVNDVLLLGSIVTKDGKNLTQESNSKK | -0.279 |
| HMKGIVFTEFLDLVEERFGLEMVDAIISQSKLESKGVYTSIGTYSFSELLQLLQNLKIQTGISIDNLLLI | -0.961 |
| HMKGKIYFFEEGVDRVGGVERVISTLANEFSKKYKVNVISFYKTRKETFFKYNSDIDITYLSK | 0.152 |
| HMKGLDRATNKALLLKHIIDNGSTGTRFSELRQVLPSLTRGSISSLLIELRSEGKIHSIGVTRNARWYPTE | -1.79 |
| HMKGLKERLLYFIEYKGLPVQMFEKIVGLSNAAVSKMGDNTRRSTIDKISKSFPELDVNWLLTGQGEMLSY | -0.942 |
| HMKGPAFAKIDLTQLPAGLTSFLNTNAAGFKLDYAVAITKDSVIIEYHVGVTIGTAKKEFHLDPNFQLLP | -0.499 |
| HMKGPLKDLGPDPVTGKSILVKDGKFGTYVTDGETNATLRRGDIVELLTLERGMELLAEKRARATQ | 0.0771 |
| HMKGTVKFFNESKGFGFITEEGTNKEHFVHVSGLVDEIRENDEVEFDLQDGRKGLNAVNVRV | 0.363 |
| HMKGVENLSDIDIQKALNNARANLSKNKAKLEQAGDDEKKKASALAMIQKWETTKKAIEEEIEARKKKSLN | -0.491 |
| HMKHAIKEKIRNEYVHGYLNEEGYRVMPTLDELIRKYEVPASSTYRASSKEGWKKQKEAFLEHLRGEIDA | -0.492 |
| HMKHFFIIAGGKIEDAFAIEVLKGFAEKTVIAADSGMEFLRRNEIVPQVIIGDFDSVSKETLEWFQKK | -0.751 |
| HMKHKGILTTWNDDRGFGFITPKEGKEPVFVHISAFARGQGRPVLNASLTYRLVRDDQQRPRAEAVRL | -1.33 |
| HMKHKHHIIPKHKGGTDHPDNLIELTVEQHAKAHWVEFMLDGREEDYWAWKGLEGVASKKDIIYALSKR | -0.0688 |
| HMKHSEAIELGKRMLSQALQDVSLVLKKIPEERLQAVAAELNLKTPDELFEKIGLGERLAALVARRLLP | -0.851 |
